Measured values: patent publication US20240059799A1 (Pfizer, published 2024)
Residue numbers refer to the chain shown, from its start.

T1: recombinant human TL1A (human, UniProt O95150 71-251)
T1 chain: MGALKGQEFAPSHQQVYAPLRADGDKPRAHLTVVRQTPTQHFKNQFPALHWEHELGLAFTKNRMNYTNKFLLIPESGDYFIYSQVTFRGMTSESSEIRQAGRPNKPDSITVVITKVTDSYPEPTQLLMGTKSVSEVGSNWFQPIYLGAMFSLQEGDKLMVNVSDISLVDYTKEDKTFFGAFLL

T2: recombinant human TL1A (human, UniProt O95150 71-251)
T2 construct: homotrimer; biotinylated for SPR capture; the ELISA paragraphs say only 'recombinant TL1A'; also called TNFSF15
T2 chain: T1 chain

B1: TL1A-0263 (antibody, human IgG1, kappa, V domains shown)
VH: QVQLVQSGAEVKKPGASVKVSCKASGYDYTYYGISWVRQAPGQGLEWMGWISTYNTGTHYAQKLQGRVTMTTDTSTSTAYMELRSLRSDDTAVYYCARESYYGSGAHRGGMDVWGQGTTVTVSS
VL: DIQMTQSPSSLSASVGDRVTITCRASQSVSSYLAWYQQKPGKAPKLLIYDASNRATGVPSRFSGSGSGTDFTLTISSLQPEDFATYYCQQRSNWPWTFGQGTKVEIKR
notes: human IgG1 effector-function-minimized/kappa
B2: TL1A-0291 (antibody, human IgG1, kappa, V domains shown)
VH: B1 VH with Y29F, I34V
VL: B1 VL
notes: as for B1
B3: TL1A-0267 (antibody, human IgG1, kappa, V domains shown)
VH: B1 VH with G57N, Q62P, K63S
VL: B1 VL
notes: as for B1
B4: TL1A-0278 (antibody, human IgG1, kappa, V domains shown)
VH: B1 VH with Y29F, T30S, G57V, Q62P, K63S, H107F
VL: B1 VL
notes: as for B1
B5: TL1A-0285 (antibody, human IgG1, kappa, V domains shown)
VH: B1 VH with Y29F, I34V, T56D, G57N, Q62P, K63S
VL: B1 VL
notes: as for B1
B6: TL1A-0275 (antibody, human IgG1, kappa, V domains shown)
VH: B1 VH with Y29F, T30S, Q62P, K63S
VL: B1 VL
notes: as for B1
B7: TL1A-0265 (antibody, human IgG1, kappa, V domains shown)
VH: B1 VH with G57V, Q62P, K63S
VL: B1 VL
notes: as for B1
B8: TL1A-0308 (antibody, human IgG1, kappa, V domains shown)
VH: B1 VH with Y29F, S35G, G57N, Q62P, K63S, H107F
VL: B1 VL
notes: as for B1
B9: TL1A-0303 (antibody, human IgG1, kappa, V domains shown)
VH: B1 VH with Y29F, S35G, Q62P, K63S
VL: B1 VL
notes: as for B1
B10: TL1A-0289 (antibody, human IgG1, kappa, V domains shown)
VH: B1 VH with Y29F, I34V, Q62P, K63S
VL: B1 VL
notes: as for B1
B11: TL1A-0287 (antibody, human IgG1, kappa, V domains shown)
VH: B1 VH with Y29F, I34V, T56D, G57N
VL: B1 VL
notes: as for B1
B12: TL1A-0292 (antibody, human IgG1, kappa, V domains shown)
VH: B1 VH with Y29F, I34V, G57V, Q62P, K63S, H107F
VL: B1 VL
notes: as for B1
B13: TL1A-0274 (antibody, human IgG1, kappa, V domains shown)
VH: B1 VH with Y29F, T30S, Q62P, K63S, H107F
VL: B1 VL
notes: as for B1
B14: TL1A-0280 (antibody, human IgG1, kappa, V domains shown)
VH: B1 VH with Y29F, T30S, G57N, Q62P, K63S, H107F
VL: B1 VL
notes: as for B1
B15: TL1A-0294 (antibody, human IgG1, kappa, V domains shown)
VH: B1 VH with Y29F, I34V, G57N, Q62P, K63S, H107F
VL: B1 VL
notes: as for B1
B16: TL1A-0264 (antibody, human IgG1, kappa, V domains shown)
VH: B1 VH with G57V, Q62P, K63S, H107F
VL: B1 VL
notes: as for B1
B17: TL1A-0293 (antibody, human IgG1, kappa, V domains shown)
VH: B1 VH with Y29F, I34V, G57V, Q62P, K63S
VL: B1 VL
notes: as for B1
B18: TL1A-0288 (antibody, human IgG1, kappa, V domains shown)
VH: B1 VH with Y29F, I34V, Q62P, K63S, H107F
VL: B1 VL
notes: human IgG1 effector-function-minimized/kappa; 96 used
B19: TL1A-0049 (antibody, human IgG1, kappa, V domains shown)
VH: QVQLVQSGAEVKKPGASVKVSCKASGYDFTYYGISWVRQAPGQGLEWMGWISTYNGNTHYARMLQGRVTMTRDTSTSTVYMELSSLRSEDTAVYYCARENYYGSGAYRGGMDVWGQGTTVTVSS
VL: B1 VL
notes: IgG1/kappa; IGHV1-46*01 / IGKV1-39*01 grafts
B20: TL1A-0053 (antibody, human IgG1, kappa, V domains shown)
VH: B19 VH
VL: EIVMTQSPATLSLSPGERATLSCRASQSVSSYLAWYQQKPGQAPRLLIYDASNRATGIPARFSGSGSGTDFTLTISSLQPEDFAVYYCQQRSNWPWTFGQGTKVEIKR
notes: IgG1/kappa; IGHV1-46*01 / IGKV3D-7*01 grafts
B21: TL1A-0042 (antibody, human IgG1, kappa, V domains shown)
VH: B19 VH with R72T, S77R, V79A, S84R, E89D
VL: B1 VL
notes: TL1A-0002 heavy chain with light chain CDRs grafted on IGKV1-39*01 (DPK9)
B22: TL1A-0056 (antibody, human IgG1, kappa, V domains shown)
VH: B19 VH with T76I, V79A, S85R, E89D
VL: B20 VL
notes: IgG1/kappa; IGHV1-2*02 / IGKV3D-7*01 grafts
B23: TL1A-0052 (antibody, human IgG1, kappa, V domains shown)
VH: B19 VH with T76I, V79A, S85R, E89D
VL: B1 VL
notes: IgG1/kappa; IGHV1-2*02 / IGKV1-39*01 grafts
B24: TL1A-0048 (antibody, human IgG1, kappa, V domains shown)
VH: B19 VH with T76I, V79A, S85R, E89D
VL: B20 VL with M4L, Q79E
notes: IgG1/kappa; VH graft on IGHV1-2*02
B25: TL1A-0045 (antibody, human IgG1, kappa, V domains shown)
VH: B19 VH
VL: B20 VL with M4L, Q79E
notes: IgG1/kappa; VH graft on IGHV1-46*01
B26: TL1A-0043 (antibody, human IgG1, kappa, V domains shown)
VH: B19 VH with R72T, S77R, V79A, S84R, E89D
VL: B20 VL
notes: IgG1/kappa; VL graft on IGKV3D-7*01

Biological target: T1, recombinant human TL1A
Experiment: cell-based or functional assay

Row | TF-1 NF-κB reporter cell bioassay IC50 [nM] | TF-1 NF-κB reporter cell bioassay, Bioactivity relative to TL1A-0002 [fold] | Whole blood IFNγ assay IC50 [nM] | Whole blood IFNγ assay, Bioactivity relative to TL1A-0002 [fold] | Binder
1 | 40.4 | 1.2 | 0.932 | 1.1 | B1
2 |  |  | 0.929 | 1.1 | B2
3 | 42.2 | 1.2 | 0.94 | 1.1 | B3
4 |  |  | 0.82 | 1 | B4
5 |  |  | 0.955 | 1.2 | B5
6 | 24.7 | 0.7 |  |  | B6
7 | 45.1 | 1.3 | 1.01 | 1.2 | B7
8 | 43 | 1.2 | 0.81 | 1 | B8
9 | 49.4 | 1.4 | 1.23 | 1.5 | B9
10 |  |  | 0.799 | 1 | B10
11 |  |  | 0.993 | 1.2 | B11
12 | 77.9 | 2.2 | 0.95 | 1.1 | B12
13 | 19.1 | 0.6 |  |  | B13
14 |  |  | 0.914 | 1.1 | B14
15 | 56.5 | 1.6 | 0.942 | 1.1 | B15
16 | 30 | 0.9 | 1.06 | 1.3 | B16
17 |  |  | 0.986 | 1.2 | B17
18 | 96 | 2.8 |  |  | B18

Biological target: T2, recombinant human TL1A
Experiment: competition ELISA vs bio-TL1A-0002
Method: (§1) For this competition ELISA assay procedure, 96-well high binding plates (Corning, product number 3590) were coated with 1 μg/mL recombinant TL1A in 100 μL/well in Phospate Buffered Saline (PBS) overnight at 4° C. Plates were then blocked in PBS+0.02% casein solution and washed with PBS+0.05% Tween-20 following standard ELISA protocol. […] Plates were washed with PBS+0.05% Tween-20 following standard ELISA protocol, and Streptavidin-HRP (Southern Biotech, product number 7100-05) diluted to 1:10,000 in assay buffer was added to plates and incubated for 25-30 minutes at room temperature. Next, the plates were washed with PBS+0.05% Tween-20 following standard ELISA protocol, and then TMB substrate (BioFX Laboratories, catalog number TMBW-0100-01) was added to plates. Reactions were stopped after approximately 5 minutes by adding 0.18 M ortho-phosphoric acid to each well and absorbance was read at 450 nm.

Row | Bioactivity relative to TL1A-0002 [fold] | IC50 [nM] | Binder
19 | 1.1 | 4.9 | B19
20 | 1 | 4.5 | B20
21 | 0.9 | 4.2 | B21
22 | 0.8 | 3.8 | B22
23 | 0.8 | 3.5 | B23
24 | 0.9 | 4.1 | B24
25 | 1.2 | 5.5 | B25
26 | 0.9 | 3.9 | B26

Biological target: T1, recombinant human TL1A
Experiment: competition ELISA, coated TL1A, competitor bio-TL1A-0002
Method: as §1

Row | Bioactivity relative to TL1A-0002 [fold] | IC50 [nM] | Binder
27 | 1.2 | 6.2 | B1
28 | 1.8 | 9 | B2
29 | 1.3 | 6.8 | B3
30 | 1.8 | 9.1 | B4
31 | 1.7 | 8.6 | B5
32 | 1.8 | 9 | B6
33 | 1.7 | 8.7 | B7
34 | 2.8 | 14.2 | B8
35 | 3 | 15 | B9
36 | 1.6 | 7.9 | B10
37 | 2 | 10.1 | B11
38 | 1.9 | 9.6 | B12
39 | 2 | 10.1 | B13
40 | 1.6 | 8.2 | B14
41 | 1.6 | 8 | B15
42 | 3.1 | 15.8 | B16
43 | 1.9 | 9.7 | B17
44 | 1.6 | 8 | B18
